This is an account of results in patent US20090074762A1.

This assay has as its target T1, TweakR on cells (TweakR-expressing cells, TweakR transfectant cell line, A375 melanoma cells, tumor tissue) (human) (UniProt Q9NP84).
T1 sequence: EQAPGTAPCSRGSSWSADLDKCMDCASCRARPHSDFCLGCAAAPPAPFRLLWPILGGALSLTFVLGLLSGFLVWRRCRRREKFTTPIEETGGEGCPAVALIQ
The experiment in a line: cell-based or functional assay.

B1: anti-TweakR antibody ITEM4 (antibody, from another filing, V domains shown)
VH: QVQLQQSGPELVKPGASVKMSCKASGYTFTDFIIAWVKQRTGQGLEWIGEIYPGTGRTYYSEKFRGKATLTADKSSNTAYMQLSSLTSVDSAVYFCARRTIYYDYDGDYWGQGTTLTVSS
VL: DIVMTQAAFSNPVTLGTSASISCRSSKSLLHSNGITYLYWYLQKPGQSPQLLIYQMSNLASGVPDRFSSSGSGTDFTLRISRVEAEDVGVYYCAHNLELPWTFGGGTKLELK
Molecule B1 displayed an agonist activity (IL-8 release assay) of 12%.
